From patent publication US20240043521A1 (ARXX THERAPEUTICS, published 2024)
Residue numbers refer to the chain shown, from its start. Blank lines part the entries; values can stand above or below the binder they belong to.

Legend:
human S100A4 protein = target: T1, human S100A4 protein (human, UniProt P26447 1-101); experiment: Western blot
T1 construct: also called S100A4 (human)

[1] = target: A6 (lane under "Human S100 Proteins") (Homo sapiens, UniProt P06703); experiment: Western blot on human S100 proteins
[2] = target: T2, A8 (lane under "Human S100 Proteins"); experiment: Western blot on human S100 proteins
T2 construct: also called human S100A8
T2 chain: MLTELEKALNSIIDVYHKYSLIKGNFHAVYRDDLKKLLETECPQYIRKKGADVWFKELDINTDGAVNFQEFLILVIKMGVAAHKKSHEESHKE

human S100A4 dimer = target: T3, human S100A4 dimer (Homo sapiens, UniProt P26447 1-101); experiment: SPR, Biacore T200, 25 C; S100A4 captured via anti-His, antibody as analyte (0.78-200 nM), 1:1 fit
T3 construct: In the SPR it was captured on an anti-His surface, so it carried a His tag; also called recombinant human S100A4 dimer
Experimental: Quantitative, kinetic analysis of the interactions between 14 humanized antibodies and 2 control antibodies with the human S100A4 dimer were performed using surface plasmon resonance (SPR).
The analysis was performed using a Biacore T200 instrument, at 25° C. analysis temperature, at a flow rate of 50 μl/min for quantitative kinetic interaction analyses.

[3] = target: T4, human FcγRIIa-H (the high-affinity H131 variant) on Jurkat reporter cells (human, UniProt P12318 34-317); experiment: cell-based or functional assay
T4 sequence (looked up): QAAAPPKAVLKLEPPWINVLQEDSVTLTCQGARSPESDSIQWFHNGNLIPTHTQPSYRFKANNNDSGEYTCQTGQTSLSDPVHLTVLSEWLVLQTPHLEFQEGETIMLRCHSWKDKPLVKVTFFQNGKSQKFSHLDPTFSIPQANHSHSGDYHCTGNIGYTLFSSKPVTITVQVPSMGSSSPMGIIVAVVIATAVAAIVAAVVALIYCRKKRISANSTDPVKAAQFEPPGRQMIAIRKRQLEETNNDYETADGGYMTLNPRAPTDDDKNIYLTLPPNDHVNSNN

T3 sequence (P26447 whole entry, one chain of several): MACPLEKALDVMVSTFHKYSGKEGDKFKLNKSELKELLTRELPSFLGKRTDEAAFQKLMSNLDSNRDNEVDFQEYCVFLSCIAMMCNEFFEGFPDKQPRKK
T1 sequence (P26447 whole entry, one chain of several): as above

binding result (human S100A4 protein): binds | binding result [1]: no binding | binding result [2]: no binding
B1: VH1_40Phe:VL3_Leu44 (antibody, V domains shown)
VH: QVQLQESGPGLVKPSQTLSLTCTVSGDSFTNDYYWNWIRQFPGKGLEWIGHIGYGGNINYNPSLKNRLSMSRDTSKNQFSLKLSSVTAADTAVYYCTRESFYDGYPFDYWGQGTLVTVSS
VL: DIQMTQSPSSLSASVGDRVTITCRASQDIRNYLNWYQQKPGKALKLLLYYTSRLHSGVPSRFSGSGSGTDYTLTISSLQPEDFATYYCQQGNSLPRTFGGGTKVEIK
notes: also called Phe40/Leu44; VH1_H40Phe VL3_L44Leu

Kd (human S100A4 dimer): 3.47 nM | koff (human S100A4 dimer): 0.000674 s⁻¹ | kon (human S100A4 dimer): 194000 M⁻¹ s⁻¹
B2: VH1 VL3 (antibody, V domains shown)
VH: B1 VH with F41H
VL: B1 VL with L44P
notes: Humanized antibody

Kd (human S100A4 dimer): 2.84 nM | koff (human S100A4 dimer): 0.000596 s⁻¹ | kon (human S100A4 dimer): 210000 M⁻¹ s⁻¹
B3: VH1_H43Ser + H44Lys VL3 (antibody, V domains shown)
VH: B1 VH with F41H, K44S, G45K
VL: B1 VL with L44P

Kd (human S100A4 dimer): 2.25 nM | koff (human S100A4 dimer): 0.000537 s⁻¹ | kon (human S100A4 dimer): 239000 M⁻¹ s⁻¹ | binding result [1]: no binding | binding result [2]: no binding
B4: VH1 VL3_L44Leu (antibody, V domains shown)
VH: B1 VH with F41H
VL: B1 VL
notes: Humanized antibody; also called VH1:VL3_Leu44; Leu44

Kd (human S100A4 dimer): 2.15 nM | koff (human S100A4 dimer): 0.000507 s⁻¹ | kon (human S100A4 dimer): 236000 M⁻¹ s⁻¹
B5: VH1_H43Ser + H44Lys VL3_L44Leu (antibody, V domains shown)
VH: B1 VH with F41H, K44S, G45K
VL: B1 VL

Kd (human S100A4 dimer): 2.38 nM | koff (human S100A4 dimer): 0.000512 s⁻¹ | kon (human S100A4 dimer): 215000 M⁻¹ s⁻¹
B6: VH1_H43Ser VL3_L44Leu (antibody, V domains shown)
VH: B1 VH with F41H, K44S
VL: B1 VL

Kd (human S100A4 dimer): 2.65 nM | koff (human S100A4 dimer): 0.000576 s⁻¹ | kon (human S100A4 dimer): 217000 M⁻¹ s⁻¹ | binding result [1]: no binding | binding result [2]: no binding
B7: VH1_H40Phe VL3 (antibody, V domains shown)
VH: B1 VH
VL: B1 VL with L44P
notes: Humanized antibody; also called VH1_40Phe:VL3; Phe40

Kd (human S100A4 dimer): 2.43 nM | koff (human S100A4 dimer): 0.00056 s⁻¹ | kon (human S100A4 dimer): 231000 M⁻¹ s⁻¹
B8: VH1_H40Phe + H44Lys VL3 (antibody, V domains shown)
VH: B1 VH with G45K
VL: B1 VL with L44P

Kd (human S100A4 dimer): 4.72 nM | koff (human S100A4 dimer): 0.000882 s⁻¹ | kon (human S100A4 dimer): 187000 M⁻¹ s⁻¹
B9: VH1 VL3_L43Thr (antibody, V domains shown)
VH: B1 VH with F41H
VL: B1 VL with A43T, L44P

Kd (human S100A4 dimer): 1.99 nM | koff (human S100A4 dimer): 0.000523 s⁻¹ | kon (human S100A4 dimer): 263000 M⁻¹ s⁻¹
B10: VH1 VL3_L42Gly+L44Leu (antibody, V domains shown)
VH: B1 VH with F41H
VL: B1 VL with K42G

Kd (human S100A4 dimer): 3 nM | koff (human S100A4 dimer): 0.00064 s⁻¹ | kon (human S100A4 dimer): 213000 M⁻¹ s⁻¹
B11: VH1 VL3_L42Gly (antibody, V domains shown)
VH: B1 VH with F41H
VL: B1 VL with K42G, L44P

Kd (human S100A4 dimer): 2.77 nM | koff (human S100A4 dimer): 0.000592 s⁻¹ | kon (human S100A4 dimer): 213000 M⁻¹ s⁻¹
B12: VH1_H44Lys VL3 (antibody, V domains shown)
VH: B1 VH with F41H, G45K
VL: B1 VL with L44P

Kd (human S100A4 dimer): 3.21 nM | koff (human S100A4 dimer): 0.000679 s⁻¹ | kon (human S100A4 dimer): 211000 M⁻¹ s⁻¹
B13: VH1_H43Ser VL3 (antibody, V domains shown)
VH: B1 VH with F41H, K44S
VL: B1 VL with L44P

FcγRIIa-H ADCP reporter; fold higher activation than AX-202 hIgG4, immune complex with S100A4 dimer [3]: 3.23 fold | FcγRIIa-H ADCP reporter; fold higher activation than AX-202 hIgG4, immune complex with S100A4 multimer [3]: 2.87 fold | Kd (human S100A4 dimer): 1.65 nM | koff (human S100A4 dimer): 0.000206 s⁻¹ | kon (human S100A4 dimer): 124000 M⁻¹ s⁻¹
B14: 6B12, mouse monoclonal IgG1 anti-S100A4 antibody (antibody, V domains shown)
VH: DVQLQESGPGLVKPSQSLSLTCSVTGDSFTNDYYWNWIRQFPGSKLEWMGHIGYGGNINYNPSLKNRISITRDTSKNQFFLRLTSVTTEDTATYYCTRESFYDGYPFDYWGQGTLVTVSA
VL: DIQMTQTTSSLSASLGDRVTISCRASQDIRNYLNWYQQRPGGTLKLLIYYTSRLHSGVPSRFSGSGSGTDYSLTISNLEQEDIATYFCQQGNSLPRTFGGGTKLEIK
notes: Mouse IgG1; also called 6B12 mIgG1; 6B12 IgG1

Kd (human S100A4 dimer): 1.15 nM | koff (human S100A4 dimer): 0.000361 s⁻¹ | kon (human S100A4 dimer): 313000 M⁻¹ s⁻¹
B15: VH1 VL0 (antibody, V domains shown)
VH: B1 VH with F41H
VL: B14 VL

Kd (human S100A4 dimer): 1.46 nM | koff (human S100A4 dimer): 0.000279 s⁻¹ | kon (human S100A4 dimer): 191000 M⁻¹ s⁻¹
B16: VH0 VL3 (antibody, V domains shown)
VH: B14 VH
VL: B1 VL with L44P

Kd (human S100A4 dimer): 0.958 nM | koff (human S100A4 dimer): 0.000219 s⁻¹ | kon (human S100A4 dimer): 229000 M⁻¹ s⁻¹
B17: VH0 VL0: the VH and VL regions of 6B12 comprised in a humanized IgG4 isotype framework (antibody, V domains shown)
VH: B14 VH
VL: B14 VL

FcγRIIa-H ADCP reporter; potency to induce FcγR activation against the same antibody with a human IgG1 scaffold [3]: ~3 fold lower
B18: AX-202, a humanized IgG4 monoclonal anti-S100A4 antibody (antibody)
heavy: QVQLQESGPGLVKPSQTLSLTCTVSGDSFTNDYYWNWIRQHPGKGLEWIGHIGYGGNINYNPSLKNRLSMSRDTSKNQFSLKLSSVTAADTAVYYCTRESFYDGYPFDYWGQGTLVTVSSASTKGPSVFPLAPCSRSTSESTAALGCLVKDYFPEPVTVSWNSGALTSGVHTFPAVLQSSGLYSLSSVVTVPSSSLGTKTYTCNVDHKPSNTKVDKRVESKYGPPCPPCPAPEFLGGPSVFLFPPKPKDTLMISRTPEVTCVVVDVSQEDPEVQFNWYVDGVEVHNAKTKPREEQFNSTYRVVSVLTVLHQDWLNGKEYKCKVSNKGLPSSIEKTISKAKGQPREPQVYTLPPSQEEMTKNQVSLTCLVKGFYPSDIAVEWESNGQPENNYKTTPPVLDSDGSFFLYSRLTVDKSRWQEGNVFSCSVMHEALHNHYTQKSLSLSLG
light: DIQMTQSPSSLSASVGDRVTITCRASQDIRNYLNWYQQKPGKALKLLLYYTSRLHSGVPSRFSGSGSGTDYTLTISSLQPEDFATYYCQQGNSLPRTFGGGTKVEIKRTVAAPSVFIFPPSDEQLKSGTASVVCLLNNFYPREAKVQWKVDNALQSGNSQESVTEQDSKDSTYSLSSTLTLSKADYEKHKVYACEVTHQGLSSPVTKSFNRGEC
